Experimental data taken from the supplement of paper PMC5998384.

Key:
[1] = tested on: HeLa Kyoto; assay: solubility in G1/S (NP-40 vs SDS abundance) (log2 ratio); higher = more soluble; conditions: cell cycle stage: G1/S
[2] = tested on: HeLa Kyoto; assay: melting temperature (median over replicates), in situ; higher = more thermally stable
[3] = tested on: HeLa Kyoto; assay: thermal stability score vs G1/S (z-score of summed log2 fold changes over temperatures); higher = more thermally stable than in G1/S
[4] = tested on: HeLa Kyoto; assay: solubility change mitosis vs G1/S (difference of NP-40 vs SDS log2 ratios) (log2 ratio difference); higher = more soluble in mitosis
[5] = cell cycle stage: early G1 (4.5 h after nocodazole release)
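Throughout, for melting temperature (median over replicates), in situ: HeLa Kyoto cells synchronized by double thymidine or nocodazole block, proteins quantified by TMT10plex mass spectrometry, three independent biological replicates.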
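Throughout, for solubility change mitosis vs G1/S (difference of NP-40 vs SDS log2 ratios): synchronized HeLa Kyoto cells (double thymidine block for G1/S, nocodazole release for mitosis), protein amounts in NP-40 versus SDS lysates quantified by mass spectrometry, three biological replicates.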
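Throughout, for solubility in G1/S (NP-40 vs SDS abundance): HeLa Kyoto cells arrested at G1/S by double thymidine block, proteins quantified by TMT10plex mass spectrometry in mild NP-40 versus SDS extracts, three biological replicates.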
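Throughout, for thermal stability score vs G1/S (z-score of summed log2 fold changes over temperatures): synchronized HeLa Kyoto cells, proteins quantified by TMT10plex mass spectrometry, three biological replicates, mitosis taken 0.5 h after nocodazole release, G1/S directly after double thymidine block.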

Sequence of HDGFRP2 (chain, as listed by the source): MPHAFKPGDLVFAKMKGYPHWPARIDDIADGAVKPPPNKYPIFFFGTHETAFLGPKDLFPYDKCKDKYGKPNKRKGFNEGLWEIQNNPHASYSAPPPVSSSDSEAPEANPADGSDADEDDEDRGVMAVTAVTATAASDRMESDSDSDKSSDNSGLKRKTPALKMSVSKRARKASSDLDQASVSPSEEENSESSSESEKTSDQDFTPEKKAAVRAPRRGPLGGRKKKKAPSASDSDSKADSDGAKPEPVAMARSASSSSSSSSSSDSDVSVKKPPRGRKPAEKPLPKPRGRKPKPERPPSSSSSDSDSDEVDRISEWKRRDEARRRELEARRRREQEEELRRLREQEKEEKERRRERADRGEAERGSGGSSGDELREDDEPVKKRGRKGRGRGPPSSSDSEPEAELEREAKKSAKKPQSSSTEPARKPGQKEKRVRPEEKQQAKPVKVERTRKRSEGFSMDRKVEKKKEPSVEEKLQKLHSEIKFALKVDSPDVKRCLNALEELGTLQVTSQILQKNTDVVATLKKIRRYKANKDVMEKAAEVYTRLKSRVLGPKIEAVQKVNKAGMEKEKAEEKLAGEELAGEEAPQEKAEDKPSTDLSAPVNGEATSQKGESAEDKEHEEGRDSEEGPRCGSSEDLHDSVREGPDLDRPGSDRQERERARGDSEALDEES
Sequence of TROVE2 (chain, as listed by the source): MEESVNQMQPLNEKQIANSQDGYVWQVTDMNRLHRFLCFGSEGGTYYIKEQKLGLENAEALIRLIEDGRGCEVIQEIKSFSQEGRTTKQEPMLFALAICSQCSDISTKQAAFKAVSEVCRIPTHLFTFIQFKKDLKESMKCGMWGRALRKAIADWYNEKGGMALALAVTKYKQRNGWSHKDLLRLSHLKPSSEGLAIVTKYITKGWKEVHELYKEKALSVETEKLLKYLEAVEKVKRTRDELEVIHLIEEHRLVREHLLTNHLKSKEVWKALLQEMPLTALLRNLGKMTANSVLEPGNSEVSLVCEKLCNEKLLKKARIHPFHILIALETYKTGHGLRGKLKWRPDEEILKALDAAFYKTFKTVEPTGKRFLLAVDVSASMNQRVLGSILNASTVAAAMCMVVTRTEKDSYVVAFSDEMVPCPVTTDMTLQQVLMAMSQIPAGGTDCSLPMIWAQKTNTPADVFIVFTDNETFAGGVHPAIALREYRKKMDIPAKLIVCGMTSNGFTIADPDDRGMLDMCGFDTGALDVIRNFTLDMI

Substance | solubility in G1/S (log2) [1] | melting temperature ([2]; cell cycle stage: G1/S) [°C] | melting temperature ([2]; cell cycle stage: mitosis) [°C] | thermal stability score [3, 5] | thermal stability score ([3]; cell cycle stage: mitosis) | solubility change mitosis (log2) [4]
MED14 | -0.117 | 48.7 | 50.1 | 0.0685 | 1.11 | -0.0671
HDGFRP2 | -0.376 | 54.3 | 53.9 | -0.27 | -1.13 | 0.275
TROVE2 | -0.149 | 57.5 | 54.7 | -4.29 | -4.23 | -0.0914
DICER1 | -0.101 | 50.7 | 50.1 | -0.0197 | 0.111 | -0.07
MAAPGPALCLFDVDGTLTAPRQKITKEMDDFLQKLRQKIKIGVVGGSDFEKVQEQLGNDVVEKYDYVFPENGLVAYKDGKLLCRQNIQSHLGEALIQDLINYCLSYIAKIKLPKKRGTFIEFRNGMLNVSPIGRSCSQEERIEFYELDKKENIRQKFVADLRKEFAGKGLTFSIGGQISFDVFPDGWDKRYCLRHVENDGYKTIYFFGDKTMPGGNDHEIFTDPRTMGYSVTAPEDTRRICELLFS [PMM2] | 0.526 | 53 | 53.3 | 12.5 | 3.25 | -0.0066
ARHGEF12 | -0.0555 | 50.7 | 50.4 | -0.146 | 0.3 | -0.0996
MAWALKLPLADEVIESGLVQDFDASLSGIGQELGAGAYSMSDVLALPIFKQEESSLPPDNENKILPFQYVLCAATSPAVKLHDETLTYLNQGQSYEIRMLDNRKLGELPEINGKLVKSIFRVVFHDRRLQYTEHQQLEGWRWNRPGDRILDIDIPMSVGIIDPRANPTQLNTVEFLWDPAKRTSVFIQVHCISTEFTMRKHGGEKGVPFRVQIDTFKENENGEYTEHLHSASCQIKVFKPKGADRKQKTDREKMEKRTPHEKEKYQPSYETTILTECSPWPEITYVNNSPSPGFNSSHSSFSLGEGNGSPNHQPEPPPPVTDNLLPTTTPQEAQQWLHRNRFSTFTRLFTNFSGADLLKLTRDDVIQICGPADGIRLFNALKGRMVRPRLTIYVCQESLQLREQQQQQQQQQQKHEDGDSNGTFFVYHAIYLEELTAVELTEKIAQLFSISPCQISQIYKQGPTGIHVLISDEMIQNFQEEACFILDTMKAETNDSYHIILK [TFCP2] | -0.0776 | 48.2 | 48.6 | 0.94 | 2.72 | -0.0306
MRRQWGSAMRAAEQAGCMVSASRAGQPEAGPWSCSGVILSRSPGLVLCHGGIFVPFLRAGSEVLTAAGAVFLPGDSCRDDLRLHVQWAPTAAGPGGGAERGRPGLCTPQCASLEPGPPAPSRGRPLQPRLPAELLLLLSCPAFWAHFARLFGDEAAEQWRFSSAARDDEVSEDEEADQLRALGWFALLGVRLGQEEVEEERGPAMAVSPLGAVPKGAPLLVCGSPFGAFCPDIFLNTLSCGVLSNVAGPLLLTDARCLPGTEGGGVFTARPAGALVALVVAPLCWKAGEWVGFTLLCAAAPLFRAARDALHRLPHSTAALAALLPPEVGVPWGLPLRDSGPLWAAAAVLVECGTVWGSGVAVAPRLVVTCRHVSPREAARVLVRSTTPKSVAIWGRVVFATQETCPYDIAVVSLEEDLDDVPIPVPAEHFHEGEAVSVVGFGVFGQSCGPSVTSGILSAVVQVNGTPVMLQTTCAVHSGSSGGPLFSNHSGNLLGIITSNTRDNNTGATYPHLNFSIPITVLQPALQQYSQTQDLGGLRELDRAAEPVRVVWRLQRPLAEAPRSKL [TYSND1] | -0.163 | 55.1 | 54 | -2.49 | -2.64 | 0.0273
MATTAAPAGGARNGAGPEWGGFEENIQGGGSAVIDMENMDDTSGSSFEDMGELHQRLREEEVDADAADAAAAEEEDGEFLGMKGFKGQLSRQVADQMWQAGKRQASRAFSLYANIDILRPYFDVEPAQVRSRLLESMIPIKMVNFPQKIAGELYGPLMLVFTLVAILLHGMKTSDTIIREGTLMGTAIGTCFGYWLGVSSFIYFLAYLCNAQITMLQMLALLGYGLFGHCIVLFITYNIHLHALFYLFWLLVGGLSTLRMVAVLVSRTVGPTQRLLLCGTLAALHMLFLLYLHFAYHKVVEGILDTLEGPNIPPIQRVPRDIPAMLPAARLPTTVLNATAKAVAVTLQSH [YIPF3] | -0.107 | 55.9 | 55.7 | -2.34 | -3.63 | -0.0133
COL5A1 | -0.2 | 55.6 | 55.3 | -0.461 | 1.15 | 0.0059
